Data on one molecule can be found in patent US20050226876A1 (Hoffmann-La Roche, published 2005).

Assay [1] deals with T1, P-selectin on P-selectin-CHO transfectants (human, UniProt P16109 42-830).
T1 construct: whole, on cells; not restated for the transfectant; also called P-selectin-CHO cells; P-selectin CHO cells
T1 sequence (looked up): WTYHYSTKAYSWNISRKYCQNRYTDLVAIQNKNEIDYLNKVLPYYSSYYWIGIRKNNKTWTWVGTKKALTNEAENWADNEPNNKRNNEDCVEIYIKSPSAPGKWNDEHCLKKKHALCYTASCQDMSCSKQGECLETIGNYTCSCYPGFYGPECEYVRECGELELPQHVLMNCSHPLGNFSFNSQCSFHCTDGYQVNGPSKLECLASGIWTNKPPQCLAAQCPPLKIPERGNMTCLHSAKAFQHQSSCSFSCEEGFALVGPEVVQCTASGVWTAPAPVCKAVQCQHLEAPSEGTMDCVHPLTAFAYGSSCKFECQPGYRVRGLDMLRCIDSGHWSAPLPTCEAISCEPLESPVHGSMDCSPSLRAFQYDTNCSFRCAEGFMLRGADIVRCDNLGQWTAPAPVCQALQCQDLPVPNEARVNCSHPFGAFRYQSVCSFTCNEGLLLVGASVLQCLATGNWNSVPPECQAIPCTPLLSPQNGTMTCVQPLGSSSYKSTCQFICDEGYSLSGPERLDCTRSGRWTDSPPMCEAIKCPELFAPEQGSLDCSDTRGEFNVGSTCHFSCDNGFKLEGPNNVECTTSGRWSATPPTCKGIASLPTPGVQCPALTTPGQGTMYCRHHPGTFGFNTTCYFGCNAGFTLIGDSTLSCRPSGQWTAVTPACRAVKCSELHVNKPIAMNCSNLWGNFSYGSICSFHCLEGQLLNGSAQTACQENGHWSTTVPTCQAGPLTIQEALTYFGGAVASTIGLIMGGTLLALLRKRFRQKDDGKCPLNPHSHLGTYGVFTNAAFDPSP
The assay is described as follows: cell-based ELISA on P-selectin-CHO transfectants, OD405. On the procedure: (§1) In the cell-based ELISA P— and E-selectin-CHO-transfectants, after detaching the cells with cell-dissociation solution (Sigma C5914), were seeded into each well of 96 well plates (TC Microwell F96 Nunc 167008) adjusted to 100,000 cells/well and cultivated in respective media overnight at 37° C. (medium for P— CHO-transfectants: DMEM+10% FCS+2 mM Glutamine+Penicillin 100 U/ml/Streptomycin 100 μg/ml; medium for E-selctin transfecttants: HAM F-12+10% FCS+2 mM Glutamine+Penicillin 100 U/ml/Streptomycin 100 μg/ml+0.1% Fungizone+100 μg/ml Neomycin). […] After washing the wells (4 times), the bound antibodies were detected using the same steps as mentioned above for the cell-free ELISA.

Assay [2] deals with T2, E-selectin on E-selectin-CHO transfectants (UniProt P16581 22-610, limits assumed).
T2 construct: whole, on cells; also called E-selectin-CHO cells; E-selectin transfectants
T2 sequence (looked up): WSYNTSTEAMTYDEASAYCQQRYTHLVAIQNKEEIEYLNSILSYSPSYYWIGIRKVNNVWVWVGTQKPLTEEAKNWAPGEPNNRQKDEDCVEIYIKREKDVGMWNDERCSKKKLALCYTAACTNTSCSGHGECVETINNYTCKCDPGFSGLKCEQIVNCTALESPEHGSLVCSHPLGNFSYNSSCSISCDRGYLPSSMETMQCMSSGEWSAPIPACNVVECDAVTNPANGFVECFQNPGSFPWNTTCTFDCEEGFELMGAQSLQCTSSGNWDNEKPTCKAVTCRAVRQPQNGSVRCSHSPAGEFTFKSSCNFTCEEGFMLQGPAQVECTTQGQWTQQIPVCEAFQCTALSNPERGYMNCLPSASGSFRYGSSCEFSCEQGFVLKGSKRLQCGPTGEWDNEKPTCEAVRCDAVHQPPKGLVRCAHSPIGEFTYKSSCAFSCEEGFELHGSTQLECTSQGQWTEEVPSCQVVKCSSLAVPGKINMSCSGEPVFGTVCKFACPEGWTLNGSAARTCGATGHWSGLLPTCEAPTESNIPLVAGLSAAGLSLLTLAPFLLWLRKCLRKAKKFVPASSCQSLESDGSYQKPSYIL
The assay is described as follows: cell-based ELISA on E-selectin-CHO transfectants, OD405. Here is the method: as §1

In assay [3] the target is T3, P-selectin on thrombin-activated human platelets (human, UniProt P16109 42-830).
T3 sequence (looked up): T1 sequence (looked up)
The assay is described as follows: cell-based or functional assay.

Assay [4] has as its target T4, human complement factor C1q (human, UniProt P02745 23-245; P02746 28-253; P02747 29-245).
T4 construct: also called Clq
The assay can be described thus: C1q ELISA, antibody coated; background OD405 0.079. Here is the method:
(§2) In principle, the ELISA plate is coated with concentration ranges of the antibody, to which human C1q or human pooled serum, as a source of C3, is added. C1q or […] binding is detected by an antibody directed against human C1q or […] followed by a peroxidase-labeled conjugate.

Assay [5] has as its target T5, human complement factor C3 (from human pooled serum) (human, UniProt P01024 23-1663, limits assumed).
T5 construct: The ELISA detects C3 (C3c) deposited on the coated antibody out of serum; also called C3c
The assay is described as follows: C3 ELISA, antibody coated, human pooled serum; background OD405 0.098. Here is the method: as §2

Assay [6] deals with T6, Fcγ receptor on human NK cells (FcγRIII) (human, UniProt P08637 17-254).
T6 construct: whole, on cells; also called FcγR presented on NK cells
T6 sequence (P08637 17-254): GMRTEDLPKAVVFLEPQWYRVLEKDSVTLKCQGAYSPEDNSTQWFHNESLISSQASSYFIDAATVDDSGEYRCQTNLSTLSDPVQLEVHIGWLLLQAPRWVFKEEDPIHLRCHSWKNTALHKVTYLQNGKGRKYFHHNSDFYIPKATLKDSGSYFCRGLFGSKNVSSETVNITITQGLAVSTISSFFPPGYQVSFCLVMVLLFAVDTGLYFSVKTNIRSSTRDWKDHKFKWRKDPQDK
The assay is described as follows: FACS on NK cells from human blood.

Assay [7] addresses T6, Fcγ receptor on human NK cells (FcγRIII). The assay can be described thus: FACS on NK cells from human blood, antibody 10 µg/ml; no antibody: 0.03.

T5 sequence (P01024 23-1663 limits assumed): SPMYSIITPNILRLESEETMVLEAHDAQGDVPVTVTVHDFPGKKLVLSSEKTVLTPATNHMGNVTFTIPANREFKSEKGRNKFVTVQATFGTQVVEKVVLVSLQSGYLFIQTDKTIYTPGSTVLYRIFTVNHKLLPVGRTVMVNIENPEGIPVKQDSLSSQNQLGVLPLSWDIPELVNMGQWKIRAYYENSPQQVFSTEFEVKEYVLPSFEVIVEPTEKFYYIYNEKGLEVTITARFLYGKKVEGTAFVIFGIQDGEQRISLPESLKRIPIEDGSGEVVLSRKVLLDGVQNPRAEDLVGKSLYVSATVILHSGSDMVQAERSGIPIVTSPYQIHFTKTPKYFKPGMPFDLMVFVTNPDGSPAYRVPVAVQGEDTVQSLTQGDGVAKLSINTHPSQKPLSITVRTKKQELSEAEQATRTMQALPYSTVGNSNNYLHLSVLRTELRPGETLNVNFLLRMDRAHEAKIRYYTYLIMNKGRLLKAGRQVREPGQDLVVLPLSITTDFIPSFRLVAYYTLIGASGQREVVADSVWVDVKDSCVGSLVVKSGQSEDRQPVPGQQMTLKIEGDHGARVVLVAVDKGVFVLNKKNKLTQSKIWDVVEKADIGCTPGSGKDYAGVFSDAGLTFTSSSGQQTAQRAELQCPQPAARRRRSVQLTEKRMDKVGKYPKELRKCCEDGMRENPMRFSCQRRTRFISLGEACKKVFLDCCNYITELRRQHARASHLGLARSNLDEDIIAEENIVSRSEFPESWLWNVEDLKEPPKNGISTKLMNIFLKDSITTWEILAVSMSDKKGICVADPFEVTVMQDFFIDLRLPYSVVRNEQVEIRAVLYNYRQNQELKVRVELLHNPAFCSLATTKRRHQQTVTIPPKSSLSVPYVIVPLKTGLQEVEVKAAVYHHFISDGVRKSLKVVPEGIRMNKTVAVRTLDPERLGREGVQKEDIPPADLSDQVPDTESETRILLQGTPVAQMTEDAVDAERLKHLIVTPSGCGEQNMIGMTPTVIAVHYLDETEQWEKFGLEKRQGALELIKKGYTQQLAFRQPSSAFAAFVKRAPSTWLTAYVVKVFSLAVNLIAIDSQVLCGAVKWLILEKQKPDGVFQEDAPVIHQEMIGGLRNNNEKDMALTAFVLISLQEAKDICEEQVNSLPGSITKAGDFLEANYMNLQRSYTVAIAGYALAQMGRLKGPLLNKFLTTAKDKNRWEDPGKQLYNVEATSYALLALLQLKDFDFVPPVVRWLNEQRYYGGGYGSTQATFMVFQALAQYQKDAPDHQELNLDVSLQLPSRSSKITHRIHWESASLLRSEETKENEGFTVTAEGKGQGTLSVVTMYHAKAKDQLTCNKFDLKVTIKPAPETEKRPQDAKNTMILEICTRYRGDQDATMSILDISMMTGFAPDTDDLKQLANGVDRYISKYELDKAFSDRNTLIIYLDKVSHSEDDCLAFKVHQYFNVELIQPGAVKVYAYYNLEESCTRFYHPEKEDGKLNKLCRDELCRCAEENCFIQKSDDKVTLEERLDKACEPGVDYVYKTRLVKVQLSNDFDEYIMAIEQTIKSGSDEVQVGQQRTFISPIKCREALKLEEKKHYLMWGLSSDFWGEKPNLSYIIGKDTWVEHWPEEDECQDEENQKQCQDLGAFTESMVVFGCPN
T4 sequence (P02745 23-245 limits assumed, chain 1 of 3): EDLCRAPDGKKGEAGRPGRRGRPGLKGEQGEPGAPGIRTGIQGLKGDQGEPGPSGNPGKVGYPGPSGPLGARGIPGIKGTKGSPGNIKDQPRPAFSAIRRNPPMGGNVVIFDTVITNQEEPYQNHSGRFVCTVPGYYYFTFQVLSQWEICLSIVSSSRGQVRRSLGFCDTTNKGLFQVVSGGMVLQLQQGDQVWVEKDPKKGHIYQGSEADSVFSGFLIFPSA
T4 sequence (P02746 28-253 limits assumed, chain 2 of 3): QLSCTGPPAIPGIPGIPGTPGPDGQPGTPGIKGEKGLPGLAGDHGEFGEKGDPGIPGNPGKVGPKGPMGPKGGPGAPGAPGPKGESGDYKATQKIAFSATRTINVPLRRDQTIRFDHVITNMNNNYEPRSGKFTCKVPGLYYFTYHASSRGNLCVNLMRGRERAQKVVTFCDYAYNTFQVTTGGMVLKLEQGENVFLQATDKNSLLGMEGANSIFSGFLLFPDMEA
T4 sequence (P02747 29-245 limits assumed, chain 3 of 3): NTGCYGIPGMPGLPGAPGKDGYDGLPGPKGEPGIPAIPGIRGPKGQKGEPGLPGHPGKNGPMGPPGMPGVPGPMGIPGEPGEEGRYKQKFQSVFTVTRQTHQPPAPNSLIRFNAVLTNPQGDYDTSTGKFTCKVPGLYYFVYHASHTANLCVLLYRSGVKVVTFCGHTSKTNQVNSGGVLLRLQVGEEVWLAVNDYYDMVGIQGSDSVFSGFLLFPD

B1: HuMab 002 Fc variant IgG1v1 (PVA-236; GLPSS331: E233P; L234V; L235A; delta G236; A327G; A330S; P331S) (antibody)
heavy: EVQLVESGGGLVRPGGSLRLSCAASGFTFSNYDMHWVRQATGKGLEWVSAITAAGDIYYPGSVKGRFTISRENAKNSLYLQMNSLRAGDTAVYYCARGRYSGSGSYYNDWFDPWGQGTLVTVSSASTKGPSVFPLAPSSKSTSGGTAALGCLVKDYFPEPVTVSWNSGALTSGVHTFPAVLQSSGLYSLSSVVTVPSSSLGTQTYICNVNHKPSNTKVDKKVEPKSCDKTHTCPPCPAPPVAGPSVFLFPPKPKDTLMISRTPEVTCVVVDVSHEDPEVKFNWYVDGVEVHNAKTKPREEQYNSTYRVVSVLTVLHQDWLNGKEYKCKVSNKGLPSSIEKTISKAKGQPREPQVYTLPPSRDELTKNQVSLTCLVKGFYPSDIAVEWESNGQPENNYKTTPPVLDSDGSFFLYSKLTVDKSRWQQGNVFSCSVMHEALHNHYTQKSLSLSPGK
light: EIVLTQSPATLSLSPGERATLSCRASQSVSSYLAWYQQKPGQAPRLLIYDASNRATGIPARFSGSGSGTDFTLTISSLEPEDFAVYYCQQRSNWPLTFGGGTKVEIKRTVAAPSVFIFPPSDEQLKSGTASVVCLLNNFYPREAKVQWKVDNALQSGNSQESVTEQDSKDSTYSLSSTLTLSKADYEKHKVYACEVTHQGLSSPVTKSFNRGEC
notes: copies: 2 + 2
With B1, in assay [1], the “EC50 (read off the curve)” value was roughly 0.03 µg/mL. Further, the binding result is reported as “no binding (tested: 100 µg/ml)” in assay [2] and “no binding (tested: 10 µg/ml)” in assay [6]. The “IC50 (read off the curve), rosetting assay with thrombin-activated human platelets and HL60 cells” value in assay [3] is roughly 0.08 µg/mL. The “Bmax (OD405 at 10 µg/ml)” value was 0.0119 OD405 in assay [4] and 0.156 OD405 in assay [5]. Further, in assay [7], the “% NK cells binding antibody” value came to 0.12%.
